Consider 1 molecule from article PMC3082519, “Molecular Determinants and Genetic Modifiers of Aggregation and Toxicity for the ALS Disease Protein FUS/TLS”.

The target of the series is GST-FUS (Homo sapiens, UniProt P35637 1-526). The series can be described thus: EMSA; 0.15-5 uM GST-FUS; yeast tRNA 25 ng, heparin added after binding; 10 mM Tris pH 7.5, 75 mM KCl, 4 mM MgCl2, 25 mM phosphocreatine, 1.25 mM ATP, 1.3% polyvinyl alcohol, 25 ng yeast tRNA, 0.8 mg BSA, 1 mM DTT, RNasin, 0.1 mM EDTA, 10% glycerol; 10 ul, 20 min at 30 C; then heparin 0.5 ug/ml; 4.5% native gel. To be noted: protein: recombinant; tags: N-terminal GST, TEV-cleavable (GST-TEV-FUS); label: 32P-UTP; single strand. (In EMSA bound probe runs differently from free probe, usually more slowly.)
GST-FUS, sequence (P35637 whole entry): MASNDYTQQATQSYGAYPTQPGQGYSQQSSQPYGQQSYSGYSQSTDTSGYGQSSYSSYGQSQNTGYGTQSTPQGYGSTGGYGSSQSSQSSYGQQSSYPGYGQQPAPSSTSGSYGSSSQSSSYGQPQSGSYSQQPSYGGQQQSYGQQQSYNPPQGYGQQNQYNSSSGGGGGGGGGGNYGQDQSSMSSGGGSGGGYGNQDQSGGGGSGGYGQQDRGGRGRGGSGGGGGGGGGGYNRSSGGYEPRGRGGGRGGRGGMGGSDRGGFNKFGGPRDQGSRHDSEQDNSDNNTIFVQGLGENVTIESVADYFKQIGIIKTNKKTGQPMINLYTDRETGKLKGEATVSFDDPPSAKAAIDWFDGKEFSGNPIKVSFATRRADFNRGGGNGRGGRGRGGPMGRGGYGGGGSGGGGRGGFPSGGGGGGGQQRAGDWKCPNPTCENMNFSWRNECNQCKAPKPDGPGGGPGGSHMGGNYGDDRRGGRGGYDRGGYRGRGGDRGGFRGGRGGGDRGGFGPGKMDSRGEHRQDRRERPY

B1: FUS RNA probe (GU-repeat) (ssRNA)
RNA: GGGGAAAAUUAAUGUGUGUGUGUGGAAAAUU
For B1, the binding result is listed as “binds”.
